B1: CPEB3 Ribozyme (parent)
chain: UAACAGGGGGCCACAGCAGAAGCGUUCACGUCGCAGCCCCUGUCAGAUUCUGGUGAAUCUGCGAAUUCUGCUGUAUAUCUC

Variants of: B1
Assay: self-cleavage, relative activity (ratio to wild type); higher = more cleavage; in vitro, sequencing
How it was run: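 Libraries of CPEB3 self-cleaving ribozyme mutants came from rounds of error-prone PCR and carried barcodes, which DNA sequencing matched to variants. In vitro transcription used T7 RNA polymerase at 37°C for 5 hours, with a further 15 min in DNase I before EDTA stopped the reaction; the ribozymes cleaved during both steps. The RNA was reverse transcribed with template switching and sequenced on Illumina. Relative activity is the cleaved/total read fraction of a variant divided by that of the unmutated ribozyme, averaged over three batches with at least 5 reads.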

| Variant | self-cleavage |
| --- | --- |
| C12U U26A | 1.19 |
| C12U U26C | 0.84 |
| A13C A15G | 1.07 |
| A13C A15U | 1 |
| A13G A47C | 0.57 |
| A13G A47U | 0.38 |
| A13G A47G | 0.86 |
| C12U C14U | 1.25 |
| C12G U72A | 0.29 |
| A13G A77U | 0.92 |
| A13G A77C | 0.62 |
| A13G A77G | 0.69 |
| C12A U60C | 0.3 |
| C12A C29U | 0.7 |
| A13G C32U | 0.18 |
| A13G C32A | 0.16 |
| C12G C17G | 0.27 |
| C12U U67A | 0.86 |
| C12U U67G | 0.95 |
| C12U U67C | 0.3 |
| C12G A13C | 0.72 |
| C12G A13G | 0.71 |
| C12G A13U | 1.14 |
| C12U U43C | 1.11 |

| Variant | self-cleavage |
| --- | --- |
| C12U U43A | 1.24 |
| A13G A64U | 0.32 |
| A13G A64G | 0.76 |
| A13G A64C | 0.46 |
| C12G C38A | 0.36 |
| C12G A20G | 0.44 |
| C12A G55C | 0.78 |
| C12G A65U | 0.1 |
| C12G A65G | 0.18 |
| C12U G16U | 0.75 |
| C12U G16C | 0.79 |
| A13C U67C | 0.19 |
| C12A U69C | 0.72 |
| C12A U69A | 0.7 |
| C12U G53A | 1.18 |
| A13G A20U | 0.28 |
| A13G A20C | 0.27 |
| A13G A20G | 0.6 |
| C12U C29U | 0.96 |
| A13C U60C | 0.51 |
| A13C U60G | 0.57 |
| A13C U60A | 0.52 |
| C12A U31C | 1.14 |
| C12A U31A | 0.65 |

| Variant | self-cleavage |
| --- | --- |
| C12G U54C | 0.51 |
| A13C A47C | 0.34 |
| A13C A47G | 1.05 |
| C12A C40U | 0.69 |
| C12A C40A | 0.3 |
| C12A A65G | 0.44 |
| C12A A65C | 0.32 |
| A13C U26C | 0.51 |
| A13C U26A | 0.61 |
| C12G C40A | 0.11 |
| A13C A28G | 0.62 |
| A13C A28U | 0.76 |
| A13C A18U | 0.25 |
| A13C A18G | 0.67 |
| A13C C44A | 0.42 |
| A13C C44U | 0.59 |
| A13C A56U | 0.48 |
| A13C A56G | 0.65 |
| A13C U41C | 1.08 |
| A13G A56U | 0.42 |
| A13G A56G | 0.73 |
| A13C U54C | 1.09 |
| A13C U54G | 0.71 |
| A13C C38A | 0.33 |

| Variant | self-cleavage |
| --- | --- |
| A13C C38U | 0.93 |
| A13C U80A | 0.92 |
| A13C U80C | 1.14 |
| A13C A45U | 0.44 |
| C12U G24C | 0.16 |
| C12U C79A | 1.19 |
| C12G A64U | 0.13 |
| A13G A21U | 0.35 |
| A13G A21G | 0.5 |
| C12A U54A | 1.1 |
| C12A U54C | 1.12 |
| C12G | 0.59 |
| C12U | 1.25 |
| C12U U80A | 1.26 |
| C12U U80C | 1.23 |
| C12U C44A | 0.94 |
| C12G U78C | 0.71 |
| C12U C27A | 0.46 |
| C12U G36C | 0.17 |
| C12G U26C | 0.24 |
| C12A U72C | 1.19 |
| A13G C59G | 0.24 |
| A13G C59U | 0.8 |
| A13C C68U | 1.07 |

| Variant | self-cleavage |
| --- | --- |
| C12A A45U | 0.49 |
| C12A U41C | 0.99 |
| C12A U41G | 0.36 |
| C12U U31G | 0.91 |
| C12U U31A | 1.11 |
| C12U U31C | 1.28 |
| C12G U41C | 1.09 |
| C12G U41G | 0.14 |
| A13G C14A | 0.88 |
| A13G C14U | 0.78 |
| A13G C27U | 0.26 |
| C12A U74G | 1.28 |
| C12U G70A | 1.06 |
| C12A A56G | 0.87 |
| C12A A56U | 0.81 |
| C12A C79A | 1.28 |
| A13C A65G | 0.32 |
| A13C U58C | 0.45 |
| A13C U25C | 0.31 |
| A13C U25A | 0.34 |
| C12U C40U | 1.12 |
| A13G A15G | 0.35 |
| A13G A15C | 0.81 |
| A13G A15U | 0.43 |

| Variant | self-cleavage |
| --- | --- |
| A13C G22A | 0.19 |
| C12U U58A | 0.9 |
| C12U U58C | 1.03 |
| A13C A57G | 1.04 |
| A13C A57U | 0.28 |
| A13G C50A | 0.76 |
| A13G C50G | 0.81 |
| A13G C50U | 0.91 |
| A13G C34G | 0.17 |
| A13G C34U | 0.32 |
| C12G A18U | 0.35 |
| C12G A18G | 0.17 |
| A13G A28C | 0.43 |
| A13G A28U | 0.54 |
| A13G A28G | 0.39 |
| A13C C17U | 0.53 |
| C12U U76C | 1.31 |
| A13C A21U | 0.49 |
| C12U U78A | 1.28 |
| C12U U78C | 1.23 |
| C12U U74A | 1.3 |
| C12U U74G | 1.25 |
| A13C A75G | 1.12 |
| A13C A75U | 0.99 |

| Variant | self-cleavage |
| --- | --- |
| C12U U48G | 0.94 |
| C12U U48C | 1.18 |
| A13C C32A | 0.29 |
| C12U U25C | 0.38 |
| C12U U25G | 0.7 |
| C12U U51A | 1.26 |
| C12U U51C | 1.25 |
| C12U U69A | 0.95 |
| C12U U69G | 1.18 |
| C12U U69C | 0.96 |
| C12G U31C | 0.92 |
| C12G G24A | 0.19 |
| C12U A47C | 0.76 |
| C12U A47U | 0.83 |
| C12U A47G | 1.17 |
| C12A G30U | 0.26 |
| C12A U26A | 1.08 |
| C12G U66C | 0.24 |
| C12U A21G | 0.86 |
| C12U A21U | 1 |
| C12G A45C | 0.12 |
| A13G A57C | 0.33 |
| A13G A57U | 0.45 |

Source: the RNAGym collection of RNA variant scans (doi:10.1093/nar/gkz1192)
